These results are taken from US20210325404A1 (ADURO BIOTECH HOLDINGS EUROPE B V, published 2021).

Test [1] concerns the target T1, human APRIL in serum of CLL patients (human, UniProt O75888 105-250).
T1 construct: Endogenous soluble APRIL in patient sera (CLL1, CLL3, CLL6, CLL11-20); also called hAPRIL; A Proliferation-Inducing Ligand
T1 sequence (looked up): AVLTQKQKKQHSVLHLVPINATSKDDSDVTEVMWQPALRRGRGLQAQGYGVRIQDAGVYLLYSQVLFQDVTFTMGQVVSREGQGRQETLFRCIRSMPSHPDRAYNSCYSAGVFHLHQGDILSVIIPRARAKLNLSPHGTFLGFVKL
The experiment in a line: ELISA: serum APRIL of CLL1, CLL3 and CLL6 captured by BCMA-Fc (500 or 100 ng/well). The method, then:
To quantify the APRIL serum levels in serum derived from CLL patients using the newly identified APRIL monoclonal antibodies, hAPRIL.130, hAPRIL.132, hAPRIL.133, hAPRIL.135 and hAPRIL.138 the following ELISA assay was performed. […] Next, plates were washed three times with PBS/0.2% Tween and blocked with 150 μl PBS/1% BSA for one hour at 37° C. After washing 3 times with PBS/0.2% Tween 100 μl of samples or standard curves was added. The CLL serum samples were five times diluted in PBS/10% FCS, while standard curve was diluted in PBS+FCS 10%+HS 20%. Samples and standard curve concentrations were incubated for 2 hr at room temperature. Next, plates were washed three times with PBS/0.2% Tween. Next, 100 μl of the anti-APRIL monoclonal antibody was added to the plates at a concentration of 1 μg/ml diluted in PBS/1% BSA and incubated for one hour at 37° C. Subsequently, plates were washed three times with PBS/0.2% Tween and 100 μl of Goat anti-Mouse IgG (H&L) (Southern Biotech, cat number 1031-05), diluted 1:1,000 in PBS/1% BSA was added and incubated for one hour at 37° C. Plates were washed three times with PBS/0.2% Tween and bound immune complexes visualized by addition of 100 μl of TMB substrate (TMB). The reaction was stopped by adding an equal amount of 1 M hydrochloric acid to the reaction volume. Bound APRIL was quantified by measurement of optical density at 450 nm.

Test [2] concerns the target T1, human APRIL in serum of CLL patients. The experiment in a line: ELISA: serum APRIL captured by BCMA-Fc, antibody at 1 µg/ml, goat anti-mouse IgG detection. Here is the method: To quantify the APRIL serum levels in serum derived from CLL patients using the newly identified APRIL monoclonal antibodies, hAPRIL.130, hAPRIL.132, hAPRIL.133, hAPRIL.135 and hAPRIL.138 the following ELISA assay was performed. ELISA plates were coated with 100 μl of 0.5 μg/ml BCMA-Fc (EBC0512081; R&D), in coating buffer (0.2 M Sodium Phosphate, pH=6.5) and incubated overnight at 4° C. Next, plates were washed three times with PBS/0.2% Tween and blocked with 150 μl PBS/1% BSA for one hour at 37° C. After washing 3 times with PBS/0.2% Tween 100 μl of samples or standard curves was added. The CLL serum samples were five times diluted in PBS/10% FCS, while standard curve was diluted in PBS+FCS 10%+HS 20%. Samples and standard curve concentrations were incubated for 2 hr at room temperature. Next, plates were washed three times with PBS/0.2% Tween. Next, 100 μl of the anti-APRIL monoclonal antibody was added to the plates at a concentration of 1 μg/ml diluted in PBS/1% BSA and incubated for one hour at 37° C. Subsequently, plates were washed three times with PBS/0.2% Tween and 100 μl of Goat anti-Mouse IgG (H&L) (Southern Biotech, cat number 1031-05), diluted 1:1,000 in PBS/1% BSA was added and incubated for one hour at 37° C. […] Bound APRIL was quantified by measurement of optical density at 450 nm.

B1: hAPRIL.135 (antibody, IgG1, V domains shown)
VH: QVQLKESGPGLVAPSQSLSITCTVSGFSLSRYSVHWVRQPPGKGLEWLGMIWGGGSTDYNSALKSRLSISKDNSKRQVFLKMNSLQTDDTAIYYCARSNWEIYALDYWGQGTSVTVSS
VL: DIVLTQSPASLAVSLGQRATISCKASQSIDYDGDNYMNWYQQKPGQPPKLLIYVASSLESGIPARFSGSGSGTDFTLNIHPVEEEDAATYYCQQSNVEPYTFGGGTKLEIK
notes: constant regions are not; also called anti-hAPRIL antibody hAPRIL.135
On to B1, for which, in test [1], the binding result is “binds”.

B2: hAPRIL.138 (antibody, IgG1, V domains shown)
VH: QVQLKESGPGLVAPSQSLSITCTVSGFSLSRYSIHWVRQPPRKGLEWLGMIWGGGSTDYNSALKSRLSINKDNSKRQVFLKMHSLQTDDTAIYYCARSNWEIYAMDYWGQGTSVTVSS
VL: DIVLTQSPPSLAVSLGQRATISCKASQSIDYDGDRYMNWYQQKPGQPPKLLIYVASNLESGIPARFSGSGSGTDFTLNIHPVEEEDAATYYCQQSHEEPHTFGGGTKLEIK
notes: constant regions are not; also called anti-hAPRIL antibody hAPRIL.138
As for B2, in test [2], the binding result is given as “binds”.

B3: hAPRIL.132 (antibody, IgG1, V domains shown)
VH: QEQLKESGPGLVAPSQSLSITCTVSGFSLTSYGVHWVRQPPGKGLEWLGVIWAGGSTNYNSALMSRLSISRDNSKSQVFLKMNSLQTDDTAMYYCAREGLDTSGFYYAMDYWGQGTSVTVSS
VL: DIQMTQTTSSLSASLGDRVTISCRAGQAISNYLNWYQQKPGGTVKLLIYYTSKLHSGVPSRFSGSGSGTDYSLTISNLEQEDIATYFCQQGYTLPYTFGGGTKLEIK
notes: constant regions are not; also called anti-hAPRIL antibody hAPRIL.132
On to B3, for which, in test [1], the binding result is “binds”.

B4: hAPRIL.133 (antibody, IgG1, V domains shown)
VH: QVQLKESGPGLVAPSQSLSITCTVSGFSLTGYGVNWVRQPPGKGLEWLGVIWGDGSTEYNSALKSRLSISKDKSKSQVFLKMNSLQTDDTARYYCARDDDVMDYWGQGTSVTVSS
VL: SIVMTQTPKFLLVSAGDSITITCKADQSVSSDVAWYQQKAGQSPKLLIYYASNRYTGVPDRFTGSGYGTDFTFAISSVQAEDLAVYFCQQDYSSPWTFGGGTKLEIK
notes: constant regions are not; also called hAPRIL.133 mAb; anti-hAPRIL.133 monoclonal antibody
Turning to B4, in test [1], the binding result was “binds”.
